Data as given in IntAct's records for PubMed 21423148.

B1: Calcium-binding protein 39 (Homo sapiens), Q9Y376 (parent)
chain: MPFPFGKSHKSPADIVKNLKESMAVLEKQDISDKKAEKATEEVSKNLVAMKEILYGTNEKEPQTEAVAQLAQELYNSGLLSTLVADLQLIDFEGKKDVAQIFNNILRRQIGTRTPTVEYICTQQNILFMLLKGYESPEIALNCGIMLRECIRHEPLAKIILWSEQFYDFFRYVEMSTFDIASDAFATFKDLLTRHKLLSAEFLEQHYDRFFSEYEKLLHSENYVTKRQSLKLLGELLLDRHNFTIMTKYISKPENLKLMMNLLRDKSRNIQFEAFHVFKVFVANPNKTQPILDILLKNQAKLIEFLSKFQNDRTEDEQFNDEKTYLVKQIRDLKRPAQQEA
B2: Calcium-binding protein 39 (Homo sapiens), Q9Y376 (parent)
chain: B1 chain
partner: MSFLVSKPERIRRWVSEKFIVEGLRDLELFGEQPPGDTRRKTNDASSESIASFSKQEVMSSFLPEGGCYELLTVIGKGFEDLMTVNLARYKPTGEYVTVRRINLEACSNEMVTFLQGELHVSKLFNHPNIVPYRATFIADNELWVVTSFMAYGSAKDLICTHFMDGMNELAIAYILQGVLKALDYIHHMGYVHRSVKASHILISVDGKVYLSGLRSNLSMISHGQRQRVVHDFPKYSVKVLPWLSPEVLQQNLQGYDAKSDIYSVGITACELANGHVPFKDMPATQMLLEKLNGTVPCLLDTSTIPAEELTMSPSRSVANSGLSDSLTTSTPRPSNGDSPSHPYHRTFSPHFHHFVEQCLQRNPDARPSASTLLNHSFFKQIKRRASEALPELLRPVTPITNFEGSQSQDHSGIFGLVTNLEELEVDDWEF

Tests used:
[1] = variants of: B1; settings: with stk39_human STK39, Q9UEW8
[2] = variants of: B1; settings: with oxsr1_human OXSR1, O95747
[3] = variants of: B1; settings: with stk26_human STK26, Q9P289
[4] = variants of: B1; settings: with stk26_human STK26, Q9P289; remark: listed apart in the source
[5] = variants of: B1; settings: with stk39_human STK39, Q9UEW8; remark: listed apart in the source
[6] = variants of: B1; settings: with oxsr1_human OXSR1, O95747; remark: listed apart in the source
[7] = variants of: B1; settings: with stk25_human STK25, O00506
[8] = variants of: B1; settings: with stk26_human STK26, Q9P289; remark: listed apart in the source
[9] = variants of: B1; settings: with stk39_human STK39, Q9UEW8; remark: listed apart in the source
[10] = variants of: B1; settings: with oxsr1_human OXSR1, O95747; remark: listed apart in the source
[11] = variants of: B2; settings: with straa_human STRADA

Chain of stk26_human STK26, Q9P289 (Q9P289 whole entry, looked up): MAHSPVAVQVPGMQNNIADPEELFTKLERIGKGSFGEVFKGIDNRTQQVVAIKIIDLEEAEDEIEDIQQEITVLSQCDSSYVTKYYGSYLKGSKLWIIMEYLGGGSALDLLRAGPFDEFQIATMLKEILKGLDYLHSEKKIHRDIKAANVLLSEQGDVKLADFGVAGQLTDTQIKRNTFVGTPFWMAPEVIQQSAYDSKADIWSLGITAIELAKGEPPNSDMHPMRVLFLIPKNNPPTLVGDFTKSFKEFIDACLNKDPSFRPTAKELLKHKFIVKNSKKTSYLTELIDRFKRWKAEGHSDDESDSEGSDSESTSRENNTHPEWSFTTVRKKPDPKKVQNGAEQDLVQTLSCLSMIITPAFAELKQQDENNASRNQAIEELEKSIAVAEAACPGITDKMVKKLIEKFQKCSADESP
Chain of oxsr1_human OXSR1, O95747 (O95747 whole entry, looked up): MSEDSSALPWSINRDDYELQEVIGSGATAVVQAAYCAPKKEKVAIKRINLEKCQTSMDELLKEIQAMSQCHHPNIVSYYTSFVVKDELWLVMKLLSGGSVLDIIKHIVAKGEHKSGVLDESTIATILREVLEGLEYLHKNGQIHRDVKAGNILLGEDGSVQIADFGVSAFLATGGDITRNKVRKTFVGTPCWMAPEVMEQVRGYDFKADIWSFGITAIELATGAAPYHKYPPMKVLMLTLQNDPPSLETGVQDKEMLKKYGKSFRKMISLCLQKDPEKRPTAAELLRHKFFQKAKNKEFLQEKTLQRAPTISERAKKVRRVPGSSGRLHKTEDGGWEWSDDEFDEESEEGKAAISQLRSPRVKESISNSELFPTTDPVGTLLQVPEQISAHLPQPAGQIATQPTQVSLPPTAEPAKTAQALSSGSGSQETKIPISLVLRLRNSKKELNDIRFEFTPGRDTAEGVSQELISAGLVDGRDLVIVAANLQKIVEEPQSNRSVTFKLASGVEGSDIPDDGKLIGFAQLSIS
Chain of stk25_human STK25, O00506 (O00506 whole entry, looked up): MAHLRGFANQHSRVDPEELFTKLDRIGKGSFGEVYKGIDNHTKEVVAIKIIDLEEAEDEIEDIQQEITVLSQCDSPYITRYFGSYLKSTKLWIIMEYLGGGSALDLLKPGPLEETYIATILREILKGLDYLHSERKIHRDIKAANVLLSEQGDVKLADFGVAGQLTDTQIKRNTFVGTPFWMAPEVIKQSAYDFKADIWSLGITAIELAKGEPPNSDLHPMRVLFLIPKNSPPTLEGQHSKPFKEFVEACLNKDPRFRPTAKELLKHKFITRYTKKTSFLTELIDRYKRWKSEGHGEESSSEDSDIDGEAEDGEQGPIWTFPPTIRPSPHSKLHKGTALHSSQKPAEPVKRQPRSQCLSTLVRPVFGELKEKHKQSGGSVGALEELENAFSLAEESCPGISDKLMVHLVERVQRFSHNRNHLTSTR

| Variant | effect of a mutation on the interaction [1] | effect of a mutation on the interaction [2] | effect of a mutation on the interaction [3] | effect of a mutation on the interaction [4] | effect of a mutation on the interaction [5] | effect of a mutation on the interaction [6] | effect of a mutation on the interaction [7] | effect of a mutation on the interaction [8] | effect of a mutation on the interaction [9] | effect of a mutation on the interaction [10] | effect of a mutation on the interaction [11] |
| --- | --- | --- | --- | --- | --- | --- | --- | --- | --- | --- | --- |
| M260A | disrupting interaction | disrupting interaction | disrupting interaction | decreasing interaction | decreasing interaction | decreasing interaction | disrupting interaction | – | – | – | – |
| R227A | disrupting interaction | disrupting interaction | disrupting interaction | – | – | – | disrupting interaction | decreasing interaction | decreasing interaction | decreasing interaction | – |
| R227A | – | – | – | – | – | – | – | – | – | – | disrupting interaction |
| M260A | – | – | – | – | – | – | – | – | – | – | disrupting interaction |
